{"source": "paper PMC9888390", "about": "“A non-neutralizing glycoprotein B monoclonal antibody protects against herpes simplex virus disease in mice” (The Journal of Clinical Investigation, 2023)", "binders": {"B1": {"name": "BMPC-23 recombinant mouse IgG (antibody, V domains shown)", "VH": "QVQLQQSGPELVKPGASVKLSCKASGYSFTTYDINWVKERPGQGLEWIGWIYPREGSTNYNEKFRGKATLTADTSSSTAYMELHSLTSEDSAVYFCATYGSSRYYTMDYWGQGTSVTVSS", "VL": "not shown", "notes": "VH of BMPC-23 (bone marrow plasmacyte of a ΔgD-2-vaccinated C57BL/6 mouse); mouse IgG1 or IgG2c constant region from the expression vector; VL of BMPC-23; Cloned into both mouse IgG1 and IgG2c vectors; also called BMPC-23 (IgG2c); mIgG2c BMPC-23; source: Expi293F, transient transfection, purified from culture supernatant (protein G spin columns); copies: 2 + 2"}, "B2": {"name": "BMPC-23 Fab (Fab, V domains shown)", "VH": "B1 VH", "VL": "not shown", "notes": "as the heavy chain of m1 up to the papain cut; as the light chain of m1; also called Fab of BMPC-23; Fab portion of BMPC-23; source: from intact BMPC-23 (Expi293F) by cleavage with immobilized papain; purified by subtractive protein A chromatography"}, "B3": {"name": "HSV010-13 recombinant mouse IgG (antibody, V domains shown)", "VH": "QVQLQQPGAELVKPGASVKLSCKASGYTFTSYWIHWVKQGPGQGLEWIGMIHPNSGITHYNEKFKTKATLTVDKSSSTAYMQLSSLTSEDSAVCYCARGSSSGSAWFAYWGQGTLVTVSA", "VL": "DIQMTQSSSYLSESLGGRVTITCKASDHINNWLAWYQQKPGNAPRLLISGATSLETGVPSRFSGSGSGKDYTLSITSLQTEDVATYYCQQYWSSPLTFGAGTKLELK", "notes": "VH of HSV010-13 (germinal center B cell of a ΔgD-2-vaccinated C57BL/6 mouse); VL of HSV010-13; Member of a clonal lineage of five (HSV010-6, -9, -13, -14, -15); source: Expi293F, transient transfection, purified from culture supernatant (protein G spin columns); copies: 2 + 2"}, "B4": {"name": "HSV010-13 Fab (Fab, V domains shown)", "VH": "B3 VH", "VL": "B3 VL", "notes": "Fab part of the heavy chain of m5; as the light chain of m5; The methods tell how the Fab was made only for BMPC-23; also called Fab fragment of HSV010-13"}}, "key": {"[1]": {"biological_target": "T1, glycoprotein B of HSV-2(4674), from infected Vero cells (Human herpesvirus 2, clinical isolate …, UniProt P08666, strain)", "T1 construct": "glycoprotein B of herpes simplex virus 2, clinical isolate 4674, as made in infected cells; Seen as a band of about 100 kDa or about 116 kDa on a reducing gel; also called gB; monomeric gB; source: Vero cells infected with HSV-2(4674), in lysate", "experiment": "Western blot; HSV-2(4674)-infected or uninfected Vero cell lysates (10 μg per lane) separated by PAGE with β-mercaptoethanol, blotted and probed with BMPC-23 (10 μg/mL) overnight; anti-mouse IgG-HRP", "settings": "one partner purified"}, "[2]": {"biological_target": "glycoprotein B of HSV-2(G), from infected HaCaT cells (Human herpesvirus 2, strain G, UniProt A0A0D4CHI5, strain)", "experiment": "affinity purification with mass spectrometry; RIPA lysate of HSV-2(G)-infected HaCaT cells incubated overnight at 4°C with 1 mg/mL mAb; Protein A resin; elution with glycine-HCl pH 2.5-3.0; SDS-PAGE, in-gel trypsin digestion, nano-LC-MS/MS", "settings": "one partner purified"}, "[3]": {"biological_target": "T2, Recombinant HSV-1 glycoprotein B, soluble ectodomain (Human herpesvirus 1, strain  …, UniProt P06437)", "T2 construct": "glycoprotein B of herpes simplex virus 1, soluble ectodomain, postfusion state; The printed limits 31-70 are perhaps a misprint of 31-730 (surmised). 'epo' in the name is perhaps a foreign signal peptide (surmised); also called gB; gB-1; not shown: His tag, C-terminal, kept", "experiment": "Luminex bead binding assay; HSV-1 gB coupled to carboxylated beads; rAbs serially diluted from 2 μg/mL (3-fold, 11 dilutions) in PBS with 1% BSA, 0.05% NaN3, 0.05% Tween-20 and 1% milk, 2 hours; detected with PE-conjugated goat anti-mouse IgG", "settings": "both partners purified"}, "[4]": {"biological_target": "T2, Recombinant HSV-1 glycoprotein B, …", "experiment": "BLI; OctetRed96; gB (C-terminal His tag) captured on anti-His (HIS2) biosensors at 1 ng/μL, dipped into increasing concentrations of BMPC-23 Fab; 1:1 binding model; apparent KD derived from on and off rates", "settings": "both partners purified"}, "[5]": {"biological_target": "T2, Recombinant HSV-1 glycoprotein B, …", "experiment": "cryo-EM structure; gB 2.5 mg/mL with a 2-fold molar excess of Fab (3 mg/mL), 0.08% n-octyl-β-D-glucoside; Titan Krios 300 keV, K3 detector; gB in the postfusion state", "settings": "both partners purified"}}}
{"binder": "B1", "values": [{"measurement": "binding result", "setting": "[1]", "value": "binds"}, {"measurement": "binding result", "setting": "[2]", "value": "binds"}, {"measurement": "binding result", "setting": "[3]", "value": "binds"}]}
{"binder": "B2", "values": [{"measurement": "Kd", "setting": "[4]", "value": 10, "unit": "nM"}]}
{"binder": "B3", "values": [{"measurement": "binding result", "setting": "[3]", "value": "binds"}]}
{"binder": "B4", "values": [{"measurement": "binding result", "setting": "[5]", "value": "binds"}]}
